Values of other authors as cited in patent US6518244B2, “Combinations of heparin cofactor II agonist and platelet IIb/IIIa antagonist, and uses thereof” (IntimaX Corporation, priority 2000, dated 2003).

Details: recipients of hirudin; cited from Huhle et al, Br. J. Haematol. (1999)

## hirudin
  recipients in whom anti-hirudin antibodies are elicited: 74%
